B1: ADD1 (parent)
chain: FASDGDSGTCSPLRHSFQKQQREK
B2: TFE3 (parent)
chain: FHLGLEDILMEEEEGVVGGLSGGA

Variants of: B1
Assay: protein stability index of a GFP-peptide fusion (GPS, HEK-293T) (PSI 1-6); higher = more stable
Conditions: c terminus: a fixed tail appended
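Note: lentivirally expressed fusions sorted by FACS into six bins by GFP to DsRed ratio, PSI derived from sequencing read proportions per bin multiplied by bin number.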

Protein stability index, by site and new letter:
R14: E 4.64; G 4.11; H 3.98; I 4.52; K 4.55; L 3.66; M 4.27; N 4.46; P 5.13; Q 3.6; S 4.45; T 4.8; V 3.97; W 4.02; Y 1.94
H15: A 3.83; C 2.62; D 5.02; E 4.34; F 3.01; G 3.29; I 3.5; K 4.1; L 3.21; M 2.88; N 4.41; P 4.01; Q 3.44; R 3.45; S 4.22; T 4.16; V 2.93; W 2.39; Y 3.44
S16: A 3.52; C 2.24; D 4.82; F 2.84; G 3.54; H 4.27; I 1.99; K 4.59; L 3.17; M 2.46; N 4.35; P 2.28; Q 4.27; R 3.89; V 2.31; W 2.75; Y 3.88
F17: A 3.68; C 4.17; D 4.62; E 4.34; G 3.44; H 3.65; I 3.87; K 3.95; L 4.71; M 3.95; N 4.42; P 4.82; Q 4.52; R 4.1; S 4.47; T 3.46; V 3.71; W 3.72; Y 3.79
Q18: A 2.75; C 2.62; D 3.83; E 3.88; F 3.16; G 3.33; H 3.13; I 3.33; K 3.31; L 3.73; M 3.13; N 4; P 3.84; R 3.81; S 3.52; T 3.4; V 2.97; W 1.62; Y 3.31
K19: A 2.85; C 1.66; D 3.61; E 3.71; F 3.01; G 3.54; H 4.43; I 3.17; L 2.76; M 3.61; N 3.08; P 3.09; Q 4.53; R 3.19; S 3.23; T 3.11; W 1.8; Y 3.62
Q20: A 4.18; C 2.97; D 4.23; E 4.16; F 2.8; G 3.98; H 3.71; I 3.2; K 3.96; L 2.69; M 3.07; N 3.65; P 3.65; R 4.05; S 4.55; T 4.07; V 3.71; W 3.22; Y 2.65
Q21: A 3.85; C 3.57; D 2.81; E 3.84; F 3.89; G 3.94; H 3.4; I 3.42; K 3.75; L 3.26; M 3.48; N 4.04; P 3.67; R 3.75; S 3.64; T 3.99; V 3.06; W 3.49; Y 3.17
R22: A 3.68; C 3.57; D 4.51; E 4.23; F 3.63; G 4.24; H 3.84; I 3.68; K 4.57; L 3.27; M 3.77; N 3.42; P 3.57; Q 3.84; S 4.21; T 3.48; V 3.35; W 3.28; Y 4.09
E23: A 3.7; C 3.37; D 3.11; F 2.74; G 3.21; H 3.66; I 2.76; K 4.34; L 3.57; N 3.6; P 3.29; Q 4.04; R 3.79; S 3.66; T 3.67; V 3.58; W 2.94; Y 3.25
K24: A 2.92; C 3.41; D 3.83; E 4.01; F 2.96; G 3.41; H 3.25; I 3.17; L 3.15; M 2.46; N 3.57; P 3.42; Q 3.82; R 3.14; S 3.4; T 3.88; V 3.13; W 3.08; Y 2.83

Variants of: B2
Assay: as above
Conditions: c terminus: a fixed tail appended

Protein stability index, by site and new letter:
F1: A 5.2; C 4.89; D 5.21; E 4.53; G 4.95; H 5.11; I 4.57; K 5.06; L 4.36; M 4.85; N 5.56; P 4.88; Q 5.15; R 4.44; S 4.96; T 4.02; V 4.56; W 4.09; Y 4.24
H2: A 4.12; C 3.96; D 4.81; E 3.95; F 3.15; G 4.41; I 2.52; K 4.38; L 3.46; M 4.29; N 4.84; P 4.26; Q 4.44; R 4.16; S 4.27; T 4.23; V 2.75; W 2.94; Y 3.56
L3: A 4.52; C 2.34; D 5.27; E 5.06; F 3.92; G 3.44; H 4.32; I 4.07; K 4.49; M 3.92; N 4.17; P 4.44; Q 4.22; R 4.14; S 3.5; T 4.5; V 4.14; W 2.45; Y 3.56
G4: A 2.97; C 2.67; D 3.99; E 4.89; F 2.01; H 2.94; I 2.1; K 2.23; L 2.46; M 2.5; N 3.48; P 3.05; Q 3.54; R 2.5; S 3.94; T 3.08; V 2.13; W 2.67; Y 1.86
L5: A 4.62; C 4.36; D 4.38; E 4.96; F 3.16; G 4.52; H 3.91; I 3.7; K 3.76; M 3.46; N 3.85; P 3.59; Q 4.46; R 4.04; S 4.37; T 4.23; V 4.53; W 4.21; Y 3.21
E6: A 2.67; C 2.55; D 3.58; F 2.33; G 2.58; H 2.86; I 1.88; K 2.68; L 3.26; M 1.93; N 2.73; P 3.02; Q 3.31; R 3.3; S 2.82; T 3.04; V 2.34; W 2.02; Y 2.31
D7: A 2.34; C 2.34; E 3.56; F 2.28; G 3.54; H 2.88; I 2.25; K 2.77; L 2.16; M 1.65; N 3.04; P 3.5; Q 3.19; R 2.16; S 3.31; T 3; V 2.89; Y 1.57
I8: A 4.33
